Biological target: T1, human HVEM Fc (human, UniProt Q92956 39-202)
T1 construct: also called wild-type HVEM-Fc; not shown: human IgG1 Fc
T1 sequence: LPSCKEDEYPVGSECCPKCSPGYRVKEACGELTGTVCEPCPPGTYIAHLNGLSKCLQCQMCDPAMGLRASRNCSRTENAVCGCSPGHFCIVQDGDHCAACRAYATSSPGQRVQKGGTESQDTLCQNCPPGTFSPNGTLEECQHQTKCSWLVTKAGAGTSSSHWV
Assay: flow cytometry on EL4 cells expressing human CD160

B1: human CD160 on cells (receptor)
chain: GCINITSSASQEGTRLNLICTVWHKKEEAEGFVVFLCKDRSGDCSPETSLKQLRLKRDPGIDGVGEISSQLMFTISQVTPLHSGTYQCCARSQKSGIRLQGHFFSILFTETGNYTVTGLKQRQHLEFSHNEGTLS
notes: whole, on cells; Transduced into EL4 or 293T cells; endogenous on NK92 and blood NK cells in the functional rows
binding result: binds

— patent US20210122788A1 (SANFORD BURNHAM PREBYS MEDICAL DISCOVERY INSTITUTE, published 2021)
